According to patent publication US20170290876A1 (Novartis, published 2017):
Substitutions are numbered along the chain they refer to. Blank lines part the entries; values can stand above or below the binder they belong to.

Legend:
human VEGF [1] = biological target: T1, human VEGF (human, UniProt P15692 207-395, biotinylated (site not stated)); assay: Biacore SPR, Hu VEGF-biotin, 25 C
T1 construct: Biotinylated human VEGF generated internally; also called hVEGF; hVEGF-biotin
T1 sequence: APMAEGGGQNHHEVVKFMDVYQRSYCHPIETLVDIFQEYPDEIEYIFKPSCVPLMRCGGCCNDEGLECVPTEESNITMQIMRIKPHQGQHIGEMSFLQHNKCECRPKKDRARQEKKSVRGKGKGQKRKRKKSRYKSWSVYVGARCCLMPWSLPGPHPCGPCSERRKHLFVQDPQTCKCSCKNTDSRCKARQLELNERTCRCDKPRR

human Factor P = biological target: T2, human Factor P (human, UniProt P27918 28-469, biotinylated (site not stated)); assay: Biacore SPR, Hu factor P-biotin, 37 C
T2 construct: also called Factor P-biotin; Hu factor P-biotin
T2 sequence (P27918 28-469 limits assumed): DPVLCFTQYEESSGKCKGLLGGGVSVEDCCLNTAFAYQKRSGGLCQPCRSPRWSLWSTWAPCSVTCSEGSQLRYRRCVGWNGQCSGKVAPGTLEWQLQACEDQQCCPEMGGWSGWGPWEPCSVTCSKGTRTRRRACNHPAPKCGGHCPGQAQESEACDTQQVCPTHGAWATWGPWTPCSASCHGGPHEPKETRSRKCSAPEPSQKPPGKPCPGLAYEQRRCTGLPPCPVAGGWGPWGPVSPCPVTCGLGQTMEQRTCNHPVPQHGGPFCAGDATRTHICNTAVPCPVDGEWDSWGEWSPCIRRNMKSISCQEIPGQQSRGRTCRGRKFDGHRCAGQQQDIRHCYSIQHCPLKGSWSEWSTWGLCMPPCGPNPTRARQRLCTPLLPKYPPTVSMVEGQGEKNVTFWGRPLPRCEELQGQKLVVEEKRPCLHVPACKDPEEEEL

human TNFα = biological target: T3, human TNFα (human, UniProt P01375 77-233, biotinylated (site not stated)); assay: Biacore SPR, Hu TNFα-biotin, 37 C
T3 construct: also called TNFα-biotin; Hu TNFα-biotin
T3 sequence (P01375 77-233 limits assumed): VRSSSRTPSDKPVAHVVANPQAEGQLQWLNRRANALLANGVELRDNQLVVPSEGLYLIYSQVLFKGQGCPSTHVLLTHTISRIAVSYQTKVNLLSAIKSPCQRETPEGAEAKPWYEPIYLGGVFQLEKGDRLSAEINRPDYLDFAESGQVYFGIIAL

human VEGF [2] = biological target: T1, human VEGF; assay: Biacore SPR, human VEGF
Description: (§1) In order to determine target kinetics, two different formats were utilized. […] The second format is an anti-fab capture method in which the fab protein samples are captured and the target proteins flowed over at various concentrations.
(§2) The sample compartment which includes the analytes, ligands, and regeneration buffer, is kept at 15° C. All other running conditions were carried out at either 25° C. or 37° C. in 1×HBSE+P buffer. […] Data was collected at 10 Hz and analyzed using the Biacore T200 Evaluation Software (GE Healthcare®). This program uses a global fitting analysis method for the determination of rate and affinity constants for each interaction.

human VEGF [3] = biological target: T1, human VEGF; assay: Biacore SPR, hVEGF-biotin, 25 C
human VEGF [4] = biological target: T1, human VEGF; assay: Biacore SPR, Hu VEGF-biotin, 37 C
Description: as §1, §2

human VEGF [5] = biological target: T1, human VEGF; assay: Biacore SPR, hVEGF
human VEGF [6] = biological target: T1, human VEGF; assay: Biacore SPR, hVEGF-biotin, 37 C
IL-1β = biological target: T4, IL-1β (human, UniProt P01584 117-269, biotinylated (site not stated)); assay: Biacore SPR, IL1β-biotin, 25 C
T4 construct: also called IL1β-biotin

B4: NVS4 (Fab)
heavy: EVQLVESGGGLVQPGGSLRLSCTASGFSLTDYYYMTWVRQAPGKGLEWVGFIDPDDDPYYATWAKGRFTISRDNSKNTLYLQMNSLRAEDTAVYYCAGGDHNSGWGLDIWGQGTLVTVSSASTKGPSVFPLAPSSKSTSGGTAALGCLVKDYFPEPVTVSWNSGALTSGVHTFPAVLQSSGLYSLSSVVTVPSSSLGTQTYICNVNHKPSNTKVDKRVEPKSC
light: EIVMTQSPSTLSASVGDRVIITCQASEIIHSWLAWYQQKPGKAPKLLIYLASTLASGVPSRFSGSGSGAEFTLTISSLQPDDFATYYCQNVYLASTNGANFGQGTKLTVLKRTVAAPSVFIFPPSDEQLKSGTASVVCLLNNFYPREAKVQWKVDNALQSGNSQESVTEQDSKDSTYSLSSTLTLSKADYEKHKVYACEVTHQGLSSPVTKSFNRGEC
notes: Fab version of the 1008 scFv; also called untagged anti-VEGF Fab
Kd (human VEGF [2]): 5.1 pM | koff (human VEGF [2]): 1.38e-05 s⁻¹ | kon (human VEGF [2]): 2.71e+06 M⁻¹ s⁻¹

B5: NVS1g (Fab)
heavy: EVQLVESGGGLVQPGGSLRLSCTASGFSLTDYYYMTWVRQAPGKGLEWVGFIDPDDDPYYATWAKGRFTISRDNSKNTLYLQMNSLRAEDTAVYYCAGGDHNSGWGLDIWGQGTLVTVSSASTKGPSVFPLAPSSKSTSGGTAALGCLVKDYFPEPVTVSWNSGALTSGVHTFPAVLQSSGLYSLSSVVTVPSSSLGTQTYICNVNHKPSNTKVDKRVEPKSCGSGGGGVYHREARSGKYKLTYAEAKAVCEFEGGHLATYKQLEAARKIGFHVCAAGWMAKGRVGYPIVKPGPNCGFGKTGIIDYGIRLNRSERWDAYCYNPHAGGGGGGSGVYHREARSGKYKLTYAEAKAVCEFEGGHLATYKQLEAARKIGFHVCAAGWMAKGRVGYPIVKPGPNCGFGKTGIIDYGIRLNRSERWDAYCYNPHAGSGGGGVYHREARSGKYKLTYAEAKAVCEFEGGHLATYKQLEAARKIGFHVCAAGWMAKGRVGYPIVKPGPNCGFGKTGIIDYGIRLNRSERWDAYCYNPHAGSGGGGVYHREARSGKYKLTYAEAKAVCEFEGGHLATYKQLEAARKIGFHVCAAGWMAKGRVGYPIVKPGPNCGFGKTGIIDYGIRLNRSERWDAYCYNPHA
light: B4 light
notes: NVS4 with four tandem HA tags at the heavy chain C-terminus
Kd (human VEGF [3]): 5.46 pM | kon (human VEGF [3]): 614000 M⁻¹ s⁻¹

B7: NVS36 (Fab)
heavy: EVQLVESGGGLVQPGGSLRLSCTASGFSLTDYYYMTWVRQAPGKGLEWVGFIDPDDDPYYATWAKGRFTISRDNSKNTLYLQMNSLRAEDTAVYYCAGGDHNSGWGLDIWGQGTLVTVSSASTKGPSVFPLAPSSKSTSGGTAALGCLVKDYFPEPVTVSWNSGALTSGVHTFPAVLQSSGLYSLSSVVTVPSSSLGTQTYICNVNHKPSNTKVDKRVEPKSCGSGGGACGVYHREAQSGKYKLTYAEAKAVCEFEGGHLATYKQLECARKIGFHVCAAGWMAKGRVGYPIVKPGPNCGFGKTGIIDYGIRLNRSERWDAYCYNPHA
light: B4 light
notes: NVS4 Fab with HA11 tag; also called NVS4 linked to tag NVS-A
Kd (human VEGF [5]): 4.13 pM | koff (human VEGF [5]): 0.000257 s⁻¹ | kon (human VEGF [5]): 6.23e+07 M⁻¹ s⁻¹ | Kd (human VEGF [2]): 0.656 pM | koff (human VEGF [2]): 2.5e-05 s⁻¹ | kon (human VEGF [2]): 3.81e+07 M⁻¹ s⁻¹

B8: NVS1h (Fab)
heavy: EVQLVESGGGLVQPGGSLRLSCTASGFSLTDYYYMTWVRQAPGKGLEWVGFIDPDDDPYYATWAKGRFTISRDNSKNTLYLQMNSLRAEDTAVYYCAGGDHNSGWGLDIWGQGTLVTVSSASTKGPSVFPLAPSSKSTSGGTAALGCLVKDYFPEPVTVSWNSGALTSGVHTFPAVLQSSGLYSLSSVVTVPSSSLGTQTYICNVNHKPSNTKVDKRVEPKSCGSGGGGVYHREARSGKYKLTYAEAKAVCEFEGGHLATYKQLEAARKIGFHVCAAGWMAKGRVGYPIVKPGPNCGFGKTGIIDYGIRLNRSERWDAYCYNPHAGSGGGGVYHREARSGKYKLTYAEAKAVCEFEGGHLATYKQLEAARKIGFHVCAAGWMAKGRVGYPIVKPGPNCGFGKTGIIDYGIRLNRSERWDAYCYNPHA
light: B4 light
notes: NVS4 with tandem HA tags at the heavy chain C-terminus
Kd (human VEGF [3]): 0.558 pM | koff (human VEGF [3]): 8.76e-06 s⁻¹ | kon (human VEGF [3]): 1.57e+07 M⁻¹ s⁻¹

B9: NVS1j (Fab)
heavy: B4 heavy
light: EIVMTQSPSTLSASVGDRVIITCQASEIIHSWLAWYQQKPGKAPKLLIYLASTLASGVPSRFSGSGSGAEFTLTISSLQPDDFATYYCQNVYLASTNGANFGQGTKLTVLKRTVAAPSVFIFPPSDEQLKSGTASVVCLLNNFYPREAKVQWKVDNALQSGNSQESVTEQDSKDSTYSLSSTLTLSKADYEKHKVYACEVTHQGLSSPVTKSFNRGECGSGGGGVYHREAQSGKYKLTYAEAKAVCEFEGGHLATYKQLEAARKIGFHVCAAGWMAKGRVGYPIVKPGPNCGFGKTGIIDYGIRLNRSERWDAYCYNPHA
notes: NVS4 with HA tag at the light chain C-terminus
Kd (human VEGF [3]): 5.64 pM | koff (human VEGF [3]): 0.000172 s⁻¹ | kon (human VEGF [3]): 3.05e+07 M⁻¹ s⁻¹

B10: NVS2 (Fab)
heavy: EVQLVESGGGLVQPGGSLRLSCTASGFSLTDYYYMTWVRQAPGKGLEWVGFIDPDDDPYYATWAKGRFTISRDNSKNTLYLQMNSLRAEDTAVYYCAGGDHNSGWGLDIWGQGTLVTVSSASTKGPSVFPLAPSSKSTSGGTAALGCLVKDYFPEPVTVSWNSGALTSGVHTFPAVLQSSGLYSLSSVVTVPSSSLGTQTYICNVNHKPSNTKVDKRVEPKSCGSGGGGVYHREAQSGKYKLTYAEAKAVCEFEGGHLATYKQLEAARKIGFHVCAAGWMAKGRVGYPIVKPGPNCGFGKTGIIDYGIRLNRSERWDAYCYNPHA
light: B4 light
notes: NVS4 Fab with HA10.1 tag at heavy chain C-terminus
Kd (human VEGF [2]): 0.195 pM | koff (human VEGF [2]): 1.05e-05 s⁻¹ | kon (human VEGF [2]): 5.36e+07 M⁻¹ s⁻¹

B11: NVS1 (Fab)
heavy: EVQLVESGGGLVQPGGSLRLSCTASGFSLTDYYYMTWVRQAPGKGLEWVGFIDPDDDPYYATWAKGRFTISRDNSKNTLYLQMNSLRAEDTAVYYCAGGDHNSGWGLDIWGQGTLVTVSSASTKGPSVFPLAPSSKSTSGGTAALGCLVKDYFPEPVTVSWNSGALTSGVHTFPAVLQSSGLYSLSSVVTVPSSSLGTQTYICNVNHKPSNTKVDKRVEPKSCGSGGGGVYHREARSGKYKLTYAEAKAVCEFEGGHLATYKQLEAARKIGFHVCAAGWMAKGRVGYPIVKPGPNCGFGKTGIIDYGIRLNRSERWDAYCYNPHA
light: B4 light
notes: NVS4 Fab with HA10 tag via GSGGG at heavy chain C-terminus
Kd (human VEGF [2]): 0.176 pM | koff (human VEGF [2]): 1.01e-05 s⁻¹ | kon (human VEGF [2]): 5.75e+07 M⁻¹ s⁻¹

B13: NVS3 (Fab)
heavy: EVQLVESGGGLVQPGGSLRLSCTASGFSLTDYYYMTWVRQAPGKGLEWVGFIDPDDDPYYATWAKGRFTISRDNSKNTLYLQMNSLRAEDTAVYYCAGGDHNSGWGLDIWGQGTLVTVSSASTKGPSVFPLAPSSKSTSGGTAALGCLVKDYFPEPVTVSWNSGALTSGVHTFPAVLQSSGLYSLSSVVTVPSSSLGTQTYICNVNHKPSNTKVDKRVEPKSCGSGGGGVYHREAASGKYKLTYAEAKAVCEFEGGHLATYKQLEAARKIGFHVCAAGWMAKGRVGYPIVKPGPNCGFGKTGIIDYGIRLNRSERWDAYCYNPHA
light: B4 light
notes: NVS4 Fab with HA10.2 tag at heavy chain C-terminus
Kd (human VEGF [2]): 0.161 pM | koff (human VEGF [2]): 1.19e-05 s⁻¹ | kon (human VEGF [2]): 7.39e+07 M⁻¹ s⁻¹

B14: NVS1e (Fab)
heavy: EVQLVESGGGLVQPGGSLRLSCTASGFSLTDYYYMTWVRQAPGKGLEWVGFIDPDDDPYYATWAKGRFTISRDNSKNTLYLQMNSLRAEDTAVYYCAGGDHNSGWGLDIWGQGTLVTVSSASTKGPSVFPLAPSSKSTSGGTAALGCLVKDYFPEPVTVSWNSGALTSGVHTFPAVLQSSGLYSLSSVVTVPSSSLGTQTYICNVNHKPSNTKVDKRVEPKSCGS
light: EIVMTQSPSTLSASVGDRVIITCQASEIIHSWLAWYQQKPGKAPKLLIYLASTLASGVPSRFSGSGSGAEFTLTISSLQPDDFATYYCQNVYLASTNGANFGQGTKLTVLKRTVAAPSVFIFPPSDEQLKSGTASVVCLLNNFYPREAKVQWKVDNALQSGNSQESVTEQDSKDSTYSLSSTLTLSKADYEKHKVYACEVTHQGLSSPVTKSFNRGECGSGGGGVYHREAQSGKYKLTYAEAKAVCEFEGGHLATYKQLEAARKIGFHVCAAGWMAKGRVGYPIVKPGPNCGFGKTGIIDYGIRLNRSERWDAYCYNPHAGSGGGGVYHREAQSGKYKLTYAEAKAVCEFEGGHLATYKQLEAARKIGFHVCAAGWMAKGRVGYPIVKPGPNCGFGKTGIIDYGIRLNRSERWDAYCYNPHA
notes: NVS4 with two tandem HA tags at the light chain C-terminus
Kd (human VEGF [6]): 0.9 pM | koff (human VEGF [6]): 1.26e-05 s⁻¹ | kon (human VEGF [6]): 1.4e+07 M⁻¹ s⁻¹

B16: NVS105 (Fab)
heavy: QVQLVESGGGLVQPGGSLRLSCTASGFSLTDYYYMTWVRQAPGKGLEWVGFIDPDDDPYYATWAKGRFTISRDNSKNTLYLQMNSLRAEDTAVYYCAGGDHNSGWGLDIWGQGTLVTVSSASTKGPSVFPLAPSSKSTSGGTAALGCLVKDYFPEPVTVSWNSGALTSGVHTFPAVLQSSGLYSLSSVVTVPSSSLGTQTYICNVNHKPSNTKVDKRVEPKSCGSGGGACGVYHREAQSGKYYLTYAEAKAVCEFEGGHLATYKQLLCAQKIGFHVCAAGWMAKGRVGYPIVKPGPNCGFGKTGIIDYGIRLNRSERWDAYCYNPHA
light: DIVMTQSPSTLSASVGDRVIITCQASEIIHSWLAWYQQKPGKAPKLLIYLASTLASGVPSRFSGSGSGAEFTLTISSLQPDDFATYYCQNVYLASTNGANFGQGTKLTVLKRTVAAPSVFIFPPSDEQLKSGTASVVCLLNNFYPREAKVQWKVDNALQSGNSQESVTEQDSKDSTYSLSSTLTLSKADYEKHKVYACEVTHQGLSSPVTKSFNRGECGSGGGACGVYHREAQSGKYYLTYAEAKAVCEFEGGHLATYKQLLCAQKIGFHVCAAGWMAKGRVGYPIVKPGPNCGFGKTGIIDYGIRLNRSERWDAYCYNPHA
notes: Tag NVS-AX at the C-terminus of NVS4 heavy and light chains
Kd (human VEGF [5]): 0.13 pM | koff (human VEGF [5]): 3.97e-05 s⁻¹ | kon (human VEGF [5]): 3.06e+08 M⁻¹ s⁻¹

The remaining lines, values ahead:

Kd (human VEGF [1]): 6.75 pM | koff (human VEGF [1]): 9.18e-06 s⁻¹ | kon (human VEGF [1]): 1.36e+06 M⁻¹ s⁻¹
B1: NVS83 (scFv)
scFv: MEIVMTQSPSTLSASVGDRVIITCQASEIIHSWLAWYQQKPGKAPKLLIYLASTLASGVPSRFSGSGSGAEFTLTISSLQPDDFATYYCQNVYLASTNGANFGQGTKLTVLGGGGGGSGGGGSGGGGSSGGGSEVQLVESGGGLVQPGGSLRLSCTASGFSLTDYYYMTWVRQAPGKGLEWVGFIDPDDDPYYATWAKGRFTISRDNSKNTLYLQMNSLRAEDTAVYYCAGGDHNSGWGLDIWGQGTLVTVSSHHHHHH
notes: also called scFv of NVS4

Kd (human Factor P): 543 pM | koff (human Factor P): 0.00161 s⁻¹ | kon (human Factor P): 2.96e+06 M⁻¹ s⁻¹
B2: NVS71 (Fab, V domains shown)
VH: EVQLVQSGAEVKKPGSSVKVSCKASGGTFSSYAISWVRQAPGQGLEWMGRIIPIFGTANYAQKFQGRVTITADESTSTAYMELSSLRSEDTAVYYCARHGGYSFDSWGQGTLVTVSS
VL: SYELTQPPSVSVAPGQTARISCSGDNLGSKYVDWYQQKPGQAPVLVIYSDNNRPSGIPERFSGSNSGNTATLTISGTQAEDEADYYCQTYTSGNNYLVFGGGTKLTVLG
notes: Untagged anti-Factor P Fab

Kd (human TNFα): 26 pM | koff (human TNFα): 8.01e-05 s⁻¹ | kon (human TNFα): 3.08e+06 M⁻¹ s⁻¹
B3: NVS73 (Fab, V domains shown)
VH: EVQLVESGGGSVQPGGSLRLSCTASGFTISRSYWICWVRQAPGKGLEWVGCIYGDNDITPLYANWAKGRFTISRDTSKNTVYLQMNSLRAEDTATYYCARLGYADYAYDLWGQGTTVTVSS
VL: EIVMTQSPSTLSASVGDRVIITCQSSQSVYGNIWMAWYQQKPGRAPKLLIYQASKLASGVPSRFSGSGSGAEFTLTISSLQPDDFATYYCQGNFNTGDRYAFGQGTKLTVLK
notes: Untagged anti-TNFα Fab

Kd (human VEGF [4]): 7.64 pM | koff (human VEGF [4]): 2.34e-05 s⁻¹ | kon (human VEGF [4]): 3.06e+06 M⁻¹ s⁻¹
B6: NVS82 (antibody, human IgG1, kappa, L234A L235A)
heavy: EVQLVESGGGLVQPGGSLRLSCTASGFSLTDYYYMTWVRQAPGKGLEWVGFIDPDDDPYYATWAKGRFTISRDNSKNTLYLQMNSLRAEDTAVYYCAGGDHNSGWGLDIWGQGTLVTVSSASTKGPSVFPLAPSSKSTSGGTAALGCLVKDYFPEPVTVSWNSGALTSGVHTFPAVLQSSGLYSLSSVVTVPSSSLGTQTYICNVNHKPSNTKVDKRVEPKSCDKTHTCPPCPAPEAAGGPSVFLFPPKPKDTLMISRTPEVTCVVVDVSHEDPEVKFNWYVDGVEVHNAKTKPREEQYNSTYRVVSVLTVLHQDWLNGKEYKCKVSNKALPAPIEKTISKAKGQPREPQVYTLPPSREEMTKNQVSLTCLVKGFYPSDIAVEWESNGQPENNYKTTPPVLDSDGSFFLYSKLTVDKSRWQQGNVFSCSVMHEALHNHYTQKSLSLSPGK
light: B4 light
notes: also called IgG of NVS4

Kd (human VEGF [2]): 3.07 pM | koff (human VEGF [2]): 7.21e-05 s⁻¹ | kon (human VEGF [2]): 2.35e+07 M⁻¹ s⁻¹
B12: NVS37 (Fab)
heavy: EVQLVESGGGLVQPGGSLRLSCTASGFSLTDYYYMTWVRQAPGKGLEWVGFIDPDDDPYYATWAKGRFTISRDNSKNTLYLQMNSLRAEDTAVYYCAGGDHNSGWGLDIWGQGTLVTVSSASTKGPSVFPLAPSSKSTSGGTAALGCLVKDYFPEPVTVSWNSGALTSGVHTFPAVLQSSGLYSLSSVVTVPSSSLGTQTYICNVNHKPSNTKVDKRVEPKSCGSGGGGVYHREAQSGKYKLTYAEAKAVCEFEGGHLCTYKQLEAARKIGFHVCAAGWMAKGRVGYPIVKPGPNCGFGKTGIIDYGIRLNRSERWDAYCCNPHA
light: B4 light
notes: NVS4 Fab with HA11.1 tag

Kd (IL-1β): 14 pM | koff (IL-1β): 6.9e-05 s⁻¹ | kon (IL-1β): 4.95e+06 M⁻¹ s⁻¹
B15: NVS75T (Fab, V domains shown)
VH: QVQLVESGGGVVQPGRSLRLSCAASGFTFSVYGMNWVRQAPGKGLEWVAIIWYDGDNQYYADSVKGRFTISRDNSKNTLYLQMNGLRAEDTAVYYCARDLRTGPFDYWGQGTLVTVSS
VL: EIVLTQSPDFQSVTPKEKVTITCRASQSIGSSLHWYQQKPDQSPKLLIKYASQSFSGVPSRFSGSGSGTDFTLTINSLEAEDAAAYYCHQSSSLPFTFGPGTKVDIKR
notes: Anti-IL-1β Fab with HA tag; also called NCS75T

Kd (human VEGF [5]): 0.741 pM | koff (human VEGF [5]): 0.000104 s⁻¹ | kon (human VEGF [5]): 1.41e+08 M⁻¹ s⁻¹
B17: NVS107 (Fab)
heavy: B16 heavy with Q1E, D31N, D55Q, D56N, D100N, D108N
light: B16 light with D1E, E27Q, I28K, L50Q, T53K, S56K
notes: Tag NVS-AX at the C-terminus of the LC2 light chain and the HC4 heavy chain

Kd (human VEGF [1]): 419 pM | koff (human VEGF [1]): 0.00168 s⁻¹ | kon (human VEGF [1]): 4.01e+06 M⁻¹ s⁻¹
B18: NVS84 (designed binder)
chain: SDLGKKLLEAARAGQDDEVRILMANGADVNTADSTGWTPLHLAVPWGHLEIVEVLLKYGADVNAKDFQGWTPLHLAAAIGHQEIVEVLLKNGADVNAQDKFGKTAFDISIDNGNEDLAEILQKAAGSLPETGGGSGHHHHHH
notes: Untagged anti-VEGF DARPin
